B1: ATGL (PNPLA2, patatin-like phospholipase domain-containing protein 2), human, full length / CIDEC (FSP27), human (parent)
chain 1: MFPREKTWNISFAGCGFLGVYYVGVASCLREHAPFLVANATHIYGASAGALTATALVTGVCLGEAGAKFIEVSKEARKRFLGPLHPSFNLVKIIRSFLLKVLPADSHEHASGRLGISLTRVSDGENVIISHFNSKDELIQANVCSGFIPVYCGLIPPSLQGVRYVDGGISDNLPLYELKNTITVSPFSGESDICPQDSSTNIHELRVTNTSIQFNLRNLYRLSKALFPPEPLVLREMCKQGYRDGLRFLQRNGLLNRPNPLLALPPARPHGPEDKDQAVESAQAEDYSQLPGEDHILEHLPARLNEALLEACVEPTDLLTTLSNMLPVRLATAMMVPYTLPLESALSFTIRLLEWLPDVPEDIRWMKEQTGSICQYLVMRAKRKLGRHLPSRLPEQVELRRVQSLPSVPLSCAAYREALPGWMRNNLSLGDALAKWEECQRQLLLGLFCTNVAFPPEALRMRAPADPAPAPADPASPQHQLAGPAPLLSTPAPEARPVIGALGL
chain 2: MEYAMKSLSLLYPKSLSRHVSVRTSVVTQQLLSEPSPKAPRARPCRVSTADRSVRKGIMAYSLEDLLLKVRDTLMLADKPFFLVLEEDGTTVETEEYFQALAGDTVFMVLQKGQKWQPPSEQGTRHPLSLSHKPAKKIDVARVTFDLYKLNPQDFIGCLNVKATFYDTYSLSYDLHCCGAKRIMKEAFRWALFSMQATGHVLLGTSCYLQQLLDATEEGQPPKGKASSLIPTCLKILQ
B2: ATGL (PNPLA2, patatin-like phospholipase domain-containing protein 2), human, full length / perilipin-5, mouse (mPlin5) (parent)
chain 1: B1 chain 1
chain 2: MDQRGEDTTLAPHSRMSGDQTAQDPGSSLGELDQQNVVNRVVALPLVKATCTAVSSAYNSAKDRHPLLGSACRLAEHCVCSVTTCALDHAQPLLEHLQPQLATVNDLACRGLDKLEEKLPFLQQPSDMVVTSAKDTVAKSVTGMVDLAQRGRRWSGELRRSMSQAMDMVLGKSEKLVDRFLPMTEAELAVLAAEAEGPEVGTVEEQRQQQGYFVRLGSLSARLRHLAYEHSLGKLRQSKHRTQEMLAQLQETLELIQHMQRGASPSPTFHPPKTQELWGSWSPCLENGRSHSEVELETLALSRSLTLELQNAVDALAGCVRGLPPSAQAKVAEVQRSVDALQATFADAHCLGDVAPTALAEGRGSVARAHACVDEFLDLVLRAMPLPWLVGPFAPILVEQSEPLINLATCVDEVVGDPDPRWAHMDWPAQKRAWEAESADPGGQEAEPPRGQGKHTMMPELDF

Our source for the screen value values is paper PMC10958042.

In the first assay the parent is B1. The assay is described as follows: LUMIER: Protein A-ATGL variant and firefly luciferase-partner co-expressed in HEK293T, lysates immunoprecipitated on IgG-coated plates, co-precipitated partner measured as luciferase luminescence. To be noted: with CIDEC (FSP27), transient co-transfection, IgG-coated LUMITRAC plates, 2 h at 4 °C, three PBS washes, Bright-Glo luciferase reagent, triplicates per assay, two …, parent: 0.17, not graded, scale: log2 fold change of co-immunoprecipitated luminescence relative to wild-type ATGL within each experiment.
With chain 1 A453E, the screen value is 0.56.

With chain 1 Q396A, the screen value came out at 0.0352.

As to chain 1 S87E, the screen value is -0.478.

With chain 1 S87A, the screen value is -0.0562.

In the case of chain 1 L62A, the screen value is -0.111.

Take chain 1 L62K: the screen value is -0.0341.

For the variant chain 1 P258L, the screen value was -0.89.

Regarding chain 1 R329E, the screen value was 0.201.

On to chain 1 E125L, for which the screen value was -0.231.

As to chain 1 E314A, the screen value is -0.691.

Turning to chain 1 L178A, the screen value is -0.204.

Consider chain 1 K275A, for which the screen value was -0.673.

chain 1 S158E: the screen value was -0.309.

Turning to chain 1 S158A, the screen value was -0.128.

As for chain 1 G189E, the screen value was -0.952.

Consider chain 1 R95K, for which the screen value was -0.0915.

As for chain 1 R95L, the screen value was -0.169.

With chain 1 S106K, the screen value is -0.0703.

The assay is the same for the next values; noted with them: with CIDEC (FSP27), transient co-transfection, IgG-coated LUMITRAC plates, 2 h at 4 °C, three PBS washes, Bright-Glo luciferase reagent, triplicates per assay, two …, parent: 0.24, not graded, scale: log2 fold change of co-immunoprecipitated luminescence relative to wild-type ATGL within each experiment.
On to chain 1 A453E, for which the screen value came to 0.847.

Turning to chain 1 Q396A, the screen value is -0.182.

For chain 1 S87E, the screen value was -0.728.

With chain 1 S87A, the screen value is -0.798.

Consider chain 1 L62A, for which the screen value is -0.17.

On to chain 1 L62K, for which the screen value was determined as 0.845.

Regarding chain 1 P258L, the screen value was -0.788.

In the case of chain 1 R329E, the screen value was -0.13.

For the variant chain 1 E125L, the screen value is -0.238.

On to chain 1 E314A, for which the screen value is -0.29.

As for chain 1 L178A, the screen value was -0.645.

chain 1 K275A: the screen value is -0.64.

On to chain 1 S158E, for which the screen value was -0.238.

As to chain 1 S158A, the screen value is 0.0569.

chain 1 G189E: the screen value was -0.896.

chain 1 R95K: the screen value is -0.656.

For the variant chain 1 R95L, the screen value is 0.507.

In the case of chain 1 S106K, the screen value was -0.113.

Variants of B2 are the subject of a further assay. The description is as above. To be noted: with perilipin-5, mouse (mPlin5), transient co-transfection, IgG-coated LUMITRAC plates, 2 h at 4 °C, three PBS washes, Bright-Glo luciferase reagent, triplicates per assay, two …, parent: 0.15, not graded, scale: log2 fold change of co-immunoprecipitated luminescence relative to wild-type ATGL within each experiment.
As to chain 1 S106K, the screen value was -0.363.

Consider chain 1 L62A, for which the screen value is -0.2.

With chain 1 L62K, the screen value is -0.0604.

Turning to chain 1 R351L, the screen value was -0.213.

Take chain 1 G189E: the screen value is -1.35.

Regarding chain 1 R163K, the screen value is -0.296.

As for chain 1 L159A, the screen value is -1.17.

Take chain 1 P258L: the screen value was -0.695.

chain 1 F348E: the screen value worked out at 0.152.

Take chain 1 N39E: the screen value was -0.463.

In the case of chain 1 V127L, the screen value is -0.294.

Take chain 1 Q140K: the screen value turned out to be 0.011.

Take chain 1 Q140A: the screen value is -0.185.

As for chain 1 A453E, the screen value is 0.182.

For chain 1 A104E, the screen value is -0.161.

Consider chain 1 K92L, for which the screen value was determined as 0.0605.

Consider chain 1 L102K, for which the screen value is -0.208.

Take chain 1 G16K: the screen value was 0.284.

chain 1 T41A: the screen value stood at 0.0372.

On to chain 1 L178A, for which the screen value was -0.0602.

Turning to chain 1 E314A, the screen value is 0.0215.

Consider chain 1 P103K, for which the screen value is -0.303.

As for chain 1 E125L, the screen value was found to be 0.00114.

chain 1 G66A: the screen value was -0.448.

chain 1 G66L: the screen value was -0.614.

Consider chain 1 Q396A, for which the screen value is -0.512.

On to chain 1 N180L, for which the screen value is -0.751.

For the variant chain 1 R113K, the screen value was determined as 0.649.

In the case of chain 1 R113L, the screen value is -0.305.

Regarding chain 1 R329E, the screen value came to 0.105.

For the variant chain 1 I70A, the screen value is -1.37.

Consider chain 1 I70K, for which the screen value is -0.962.

Turning to chain 1 Y415A, the screen value came out at 0.184.

With chain 1 K275A, the screen value is -0.0642.

Consider chain 1 R95L, for which the screen value is -0.404.

In the case of chain 1 R95K, the screen value came to 0.211.

On to chain 1 F35E, for which the screen value is -0.313.

For chain 1 F35A, the screen value is -0.563.

chain 1 L261E: the screen value is -0.706.

Consider chain 1 G59L, for which the screen value is -0.841.

The same assay, now with this note: with perilipin-5, mouse (mPlin5), transient co-transfection, IgG-coated LUMITRAC plates, 2 h at 4 °C, three PBS washes, Bright-Glo luciferase reagent, triplicates per assay, two …, parent: 0.46, not graded, scale: log2 fold change of co-immunoprecipitated luminescence relative to wild-type ATGL within each experiment.
As for chain 1 S106K, the screen value is -0.539.

Consider chain 1 L62A, for which the screen value is -0.0199.

Turning to chain 1 L62K, the screen value came to 0.482.

As for chain 1 R351L, the screen value was -0.456.

In the case of chain 1 R163K, the screen value came out at 0.00396.

In the case of chain 1 L159A, the screen value is -0.435.

chain 1 P258L: the screen value was -1.24.

With chain 1 F348E, the screen value is -0.58.

For chain 1 N39E, the screen value is -0.463.

Consider chain 1 V127L, for which the screen value is -0.0973.

For the variant chain 1 Q140K, the screen value was -0.224.

chain 1 Q140A: the screen value is -0.0429.

Take chain 1 A453E: the screen value was found to be 0.52.

For the variant chain 1 A104E, the screen value was -0.459.

For the variant chain 1 K92L, the screen value is 0.185.

For chain 1 L102K, the screen value was -0.846.

For chain 1 G16K, the screen value came to 0.354.

In the case of chain 1 T41A, the screen value came to 0.0895.

chain 1 L178A: the screen value was -0.257.

With chain 1 E314A, the screen value was 0.421.

On to chain 1 P103K, for which the screen value was -0.674.

As to chain 1 E125L, the screen value is -0.226.

Take chain 1 G66A: the screen value was 0.0231.

With chain 1 G66L, the screen value is -0.664.

Take chain 1 Q396A: the screen value is -0.623.

On to chain 1 N180L, for which the screen value was -0.918.

Take chain 1 R113K: the screen value was determined as 0.667.

chain 1 R113L: the screen value is 0.191.

As for chain 1 R329E, the screen value was -0.51.

In the case of chain 1 I70A, the screen value was -0.876.

Consider chain 1 I70K, for which the screen value was -0.924.

As for chain 1 Y415A, the screen value turned out to be 0.247.

As for chain 1 K275A, the screen value is -0.483.

Regarding chain 1 R95L, the screen value is -0.391.

On to chain 1 R95K, for which the screen value is -0.228.

On to chain 1 F35E, for which the screen value is -0.0352.

Turning to chain 1 F35A, the screen value is -0.0452.

As to chain 1 L261E, the screen value is -0.846.

Consider chain 1 G59L, for which the screen value was -0.187.

The assay is the same for the next values; noted with them: with perilipin-5, mouse (mPlin5), transient co-transfection, IgG-coated LUMITRAC plates, 2 h at 4 °C, three PBS washes, Bright-Glo luciferase reagent, triplicates per assay, two …, parent: 0.46, not graded, value at the no-binding floor (a bound), scale: log2 fold change of co-immunoprecipitated luminescence relative to wild-type ATGL within each experiment.
With chain 1 G189E, the screen value was -1.51.
